Data published in doi:10.1101/2025.07.21.666041 (bioRxiv, 2025).
Where “and” joins values, the source holds several entries; their conditions need not be identical. Equal entries are not always repeated. Where two headings read alike, the source gives them in different places.

Assays:
[1] = target: Measles virus (MeV) nonstructural protein C, full length, C-terminal GFP-Flag (measles virus) (UniProt P35977); test: MST
[2] = target: T1, Measles virus (MeV) large (L) protein, full length (measles virus, UniProt P35975 1-2183); test: SEC
[3] = target: T1, Measles virus (MeV) large (L) protein, …; test: cryo-EM structure
cryo-EM structure [4] = target: the molecule itself; test: cryo-EM structure
[5] = target: Measles virus L–P complex (full-length L with truncated P 304–507) (measles virus, UniProt P35975;P35974); test: MST
cryo-EM structure [6] = target: the molecule itself; test: cryo-EM structure; remark: listed apart in the source

T1 sequence (P35975 whole entry): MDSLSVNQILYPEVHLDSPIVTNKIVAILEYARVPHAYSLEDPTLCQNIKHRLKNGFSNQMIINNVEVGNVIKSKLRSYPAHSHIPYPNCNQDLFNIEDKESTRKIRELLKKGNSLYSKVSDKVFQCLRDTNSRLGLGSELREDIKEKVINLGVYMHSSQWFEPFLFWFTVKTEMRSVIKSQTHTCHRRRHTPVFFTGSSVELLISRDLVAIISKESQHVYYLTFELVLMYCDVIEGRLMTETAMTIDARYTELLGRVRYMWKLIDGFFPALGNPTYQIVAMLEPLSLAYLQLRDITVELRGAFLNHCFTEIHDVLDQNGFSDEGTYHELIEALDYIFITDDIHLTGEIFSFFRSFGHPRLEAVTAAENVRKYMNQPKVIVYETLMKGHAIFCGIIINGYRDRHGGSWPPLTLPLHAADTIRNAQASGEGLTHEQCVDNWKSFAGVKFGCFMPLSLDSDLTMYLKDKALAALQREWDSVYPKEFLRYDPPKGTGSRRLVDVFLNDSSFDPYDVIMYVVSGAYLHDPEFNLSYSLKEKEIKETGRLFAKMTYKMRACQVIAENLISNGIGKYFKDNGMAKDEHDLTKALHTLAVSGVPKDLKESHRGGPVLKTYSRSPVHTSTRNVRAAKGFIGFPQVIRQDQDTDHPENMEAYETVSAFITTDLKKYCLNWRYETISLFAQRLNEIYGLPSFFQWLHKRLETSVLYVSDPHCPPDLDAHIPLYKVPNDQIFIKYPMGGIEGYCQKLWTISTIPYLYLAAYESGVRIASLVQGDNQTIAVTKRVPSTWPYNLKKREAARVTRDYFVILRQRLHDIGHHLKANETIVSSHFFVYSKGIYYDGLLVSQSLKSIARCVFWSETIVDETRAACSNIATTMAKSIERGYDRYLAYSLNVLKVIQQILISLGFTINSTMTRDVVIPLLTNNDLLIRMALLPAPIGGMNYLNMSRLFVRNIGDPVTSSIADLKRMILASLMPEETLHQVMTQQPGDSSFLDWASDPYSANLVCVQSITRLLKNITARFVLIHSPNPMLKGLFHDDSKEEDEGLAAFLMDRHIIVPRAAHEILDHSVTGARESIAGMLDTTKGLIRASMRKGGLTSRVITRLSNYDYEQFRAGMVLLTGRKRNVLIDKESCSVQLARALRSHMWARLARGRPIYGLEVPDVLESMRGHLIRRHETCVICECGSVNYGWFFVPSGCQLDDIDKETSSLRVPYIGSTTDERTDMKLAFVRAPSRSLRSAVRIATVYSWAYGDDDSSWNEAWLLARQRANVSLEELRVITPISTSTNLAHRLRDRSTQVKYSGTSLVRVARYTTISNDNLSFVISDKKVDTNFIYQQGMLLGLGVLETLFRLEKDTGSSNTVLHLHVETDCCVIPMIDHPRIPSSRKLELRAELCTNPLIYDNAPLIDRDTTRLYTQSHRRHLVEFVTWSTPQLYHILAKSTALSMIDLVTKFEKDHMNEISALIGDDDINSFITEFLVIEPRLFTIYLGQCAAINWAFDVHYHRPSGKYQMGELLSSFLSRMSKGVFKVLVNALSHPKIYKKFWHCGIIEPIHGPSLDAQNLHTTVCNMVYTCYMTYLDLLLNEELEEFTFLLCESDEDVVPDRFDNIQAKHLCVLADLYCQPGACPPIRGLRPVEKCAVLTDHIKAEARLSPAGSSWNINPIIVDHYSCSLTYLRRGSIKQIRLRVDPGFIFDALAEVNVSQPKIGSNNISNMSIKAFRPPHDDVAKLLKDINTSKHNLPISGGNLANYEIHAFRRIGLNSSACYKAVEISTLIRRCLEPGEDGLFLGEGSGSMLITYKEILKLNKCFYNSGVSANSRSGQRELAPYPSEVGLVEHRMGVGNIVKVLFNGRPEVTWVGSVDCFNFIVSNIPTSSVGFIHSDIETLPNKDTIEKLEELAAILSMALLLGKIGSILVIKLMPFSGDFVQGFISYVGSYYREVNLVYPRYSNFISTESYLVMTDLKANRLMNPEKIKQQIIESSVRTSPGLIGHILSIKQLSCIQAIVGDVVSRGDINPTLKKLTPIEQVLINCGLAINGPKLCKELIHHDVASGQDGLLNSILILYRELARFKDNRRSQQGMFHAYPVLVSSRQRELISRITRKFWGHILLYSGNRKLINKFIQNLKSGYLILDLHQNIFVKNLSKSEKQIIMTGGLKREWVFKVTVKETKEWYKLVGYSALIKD
Sequence of Measles virus L–P complex (full-length L with truncated P 304–507) (P35975 whole entry, the tested form may be a part, one chain of several): as the sequence (P35975 whole entry) above

With “Measles virus nucleoprotein N lacking the N-arm (residues 30–525) (from UniProt P35972 30-525) (domain or fragment)” the Kd [1] was 4.57 µM and 3.92 µM.

B1: Measles virus (MeV) phosphoprotein P, full length (natural protein)
chain: MAEEQARHVKNGLECIRALKAEPIGSLAIEEAMAAWSEISDNPGQERATCREEKAGSSGLSKPCLSAIGSTEGGAPRIRGQGPGESDDDAETLGIPPRNLQASSTGLQCYYVYDHSGEAVKGIQDADSIMVQSGLDGDSTLSGGDNESENSDVDIGEPDTEGYAITDRGSAPISMGFRASDVETAEGGEIHELLRLQSRGNNFPKLGKTLNVPPPPDPGRASTSGTPIKKGTERRLASFGTEIASLLTGGATQCARKSPSEPSGPGAPAGNVPEYVSNAALIQEWTPESGTTISPRSQNNEEGGDYYDDELFSDVQDIKTALAKIHEDNQKIISKLESLLLLKGEVESIKKQINRQNISISTLEGHLSSIMIAIPGLGKDPNDPTADVEINPDLKPIIGRDSGRALAEVLKKPVASRQLQGMTNGRTSSRGQLLKEFQPKPIGKKMSSAVGFVPDTGPASRSVIRSIIKSSRLEEDRKRYLMTLLDDIKGANDLAKFHQMLMKIIMK
B1: binds [2].

B2: Measles virus (MeV) phosphoprotein P, N-terminally truncated (residues 304–507) (domain or fragment)
chain: GDYYDDELFSDVQDIKTALAKIHEDNQKIISKLESLLLLKGEVESIKKQINRQNISISTLEGHLSSIMIAIPGLGKDPNDPTADVEINPDLKPIIGRDSGRALAEVLKKPVASRQLQGMTNGRTSSRGQLLKEFQPKPIGKKMSSAVGFVPDTGPASRSVIRSIIKSSRLEEDRKRYLMTLLDDIKGANDLAKFHQMLMKIIMK
B2 was tested, and the binding result [3] was “binds” and the “stoichiometry N” value (cryo-EM structure [4]) was 4.

B3: Measles virus (MeV) nonstructural protein C, full length, C-terminal GFP-Flag (natural protein)
chain: MSKTDWNASGLSRPSPSAHWPSRKLWQHGQKYQTTQDRSEPPAGKRRQAVRVSANHASQQLDQLKAVHLASAVRDLERAMTTLKLWESPQEISRHQALGYSVIMFMITAVKRLRESKMLTLSWFNQALMVIAPYQEETMNLKTAMWILANLIPRDMLSLTGDLLPSLWGSGLLMLKLQKEGRSTSS
With B3 the Kd [5] was ~0.32 µM and the “stoichiometry N” value (cryo-EM structure [6]) was 2.
